Assay results reported in article PMC2883945 (Molecular Biology of the Cell, 2010).
Blank lines part the entries; values can stand above or below the binder they belong to.

Columns and labels:
[1] = molecular target: T1, Bik1 (purified from insect cells, 6xHis tag removed) (S. cerevisiae, UniProt P11709 1-440); assay: SEC + other: sucrose gradient sedimentation
T1 sequence (looked up): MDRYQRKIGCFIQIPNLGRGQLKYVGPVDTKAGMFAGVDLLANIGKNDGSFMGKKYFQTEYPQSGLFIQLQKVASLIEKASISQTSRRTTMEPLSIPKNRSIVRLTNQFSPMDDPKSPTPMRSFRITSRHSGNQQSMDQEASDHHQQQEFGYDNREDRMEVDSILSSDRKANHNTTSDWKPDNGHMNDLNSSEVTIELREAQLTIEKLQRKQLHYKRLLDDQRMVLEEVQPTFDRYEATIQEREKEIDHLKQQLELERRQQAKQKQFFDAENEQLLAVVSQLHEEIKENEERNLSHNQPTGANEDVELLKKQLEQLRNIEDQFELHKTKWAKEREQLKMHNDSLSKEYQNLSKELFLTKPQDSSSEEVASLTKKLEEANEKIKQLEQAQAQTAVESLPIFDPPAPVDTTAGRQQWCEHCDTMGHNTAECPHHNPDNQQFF

[2] = molecular target: taxol-stabilized microtubules (bovine brain tubulin) (bovine) (UniProt Q6B856); assay: co-sedimentation
[3] = molecular target: the molecule itself; assay: SEC + other: sucrose gradient sedimentation

stoichiometry N [1]: 1 Bim1 per Bik1 (2:2 tetramer) | Kd [2]: 500 nM
B1: Bim1 (purified from insect cells, 6xHis tag removed) (natural protein, S. cerevisiae, UniProt P40013 1-344, looked up)
chain: MSAGIGESRTELLTWLNGLLNLNYKKIEECGTGAAYCQIMDSIYGDLPMNRVKFNATAEYEFQTNYKILQSCFSRHGIEKTVYVDKLIRCKFQDNLEFLQWLKKHWIRHKDESVYDPDARRKYRPIITNNSATKPRTVSNPTTAKRSSSTGTGSAMSGGLATRHSSLGINGSRKTSVTQGQLVAIQAELTKSQETIGSLNEEIEQYKGTVSTLEIEREFYFNKLRDIEILVHTTQDLINEGVYKFNDETITGHGNGNGGALLRFVKKVESILYATAEGFEMNDGEDELNDKNLGEHGTVPNQGGYANSNGEVNGNEGSNHDVIMQNDEGEVGVSNNLIIDEETF

B2: Bim1, endogenous in yeast whole cell extract (natural protein, S. cerevisiae (endogenous in CUY28), UniProt P40013 1-344, looked up)
chain: B1 chain
stoichiometry N [3]: 2

B3: Bik1, endogenous in yeast whole cell extract (natural protein, S. cerevisiae (endogenous in CUY28), UniProt P11709 1-440, looked up)
chain: T1 sequence (looked up)
stoichiometry N [3]: 2
